# Assays:
# [1] = biological target: human TGF-β1-LAP (amino acid residues position-30 to position-390), recombinant, Example 4 (human) (UniProt P01137); assay: SPR, Biacore T200; antibody immobilised on CM5, analyte 1.56-25 nM
# [2] = biological target: complex of human TGF-β1 LAP-D and A2D109 antibody Fab fragment (human) (UniProt P01137); assay: SPR, Biacore T200; antibody immobilised on CM5, analyte is the preformed LAP/A2D109 Fab complex, 1.56-25 nM
# [3] = biological target: T1, human TGF-β1-LAP (amino acid residues position-30 to position-390), recombinant, Example 4 (human, UniProt P01137 30-390); assay: SPR, Biacore T200; antibody immobilised on CM5, analyte 1.56-25 nM
# T1 construct: Expressed in HEK293F cells behind an Igk signal with a TEV-cleavable His tag, which was cut off; Stated molecular weight 41653 Da; also called human TGF-β1 LAP-D; TGF-β LAP
# Method: (§1) Each of the anti-LAP-D antibody (A10) and the BAM2462 antibody was immobilized on a Biacore (registered trademark) sensor chip Series S Sensor Chip CM5 (manufactured by GE Healthcare). The amounts of these antibodies immobilized were 2027 RU and 310 RU, respectively. Each of a solution of human TGF-β1 LAP and a solution of a complex of human TGF-β1 LAP and A2D109 Fab was diluted with a buffer composed of 10 mM of HEPES-NaOH (pH 7.5), 150 mM of NaCl, 3 mM of EDTA and 0.005% of Surfactant P-20 to prepare solutions having various concentrations. Each of these solutions was fed to Biacore (registered trademark) T200 (manufactured by GE Healthcare). The analyte concentration in each of the solutions and the measurement conditions are shown below. Measurement data were analyzed using Biacore (registered trademark) Evaluation software to acquire date on the affinity of each of the antibodies.
# [4] = biological target: T2, complex of human TGF-β1 LAP-D and A2D109 antibody Fab fragment (human, UniProt P01137 30-390); assay: SPR, Biacore T200; antibody immobilised on CM5, analyte is the preformed LAP/A2D109 Fab complex, 1.56-25 nM
# T2 construct: Preformed complex, mixed 1:1 by moles and purified by gel filtration; Stated molecular weight 89514 Da; Used as the SPR analyte; also called TGF-β LAP-A2D109Fab; complex of human TGF-β1 LAP and A2D109 Fab
# Method: as §1
# [5] = biological target: T1, human TGF-β1-LAP (amino acid residues …); assay: complex formation, gel filtration
# Method: A Fab fragment (A2D109 Fab) was prepared from the A2D109 antibody using Pierce (trademark) Mouse IgG1 Fab and F(ab′)2 Preparation Kit (manufactured by Thermo Fisher). The concrete operation of the procedure was carried out in accordance with the manual included in the kit. A reaction solution produced by the procedure was purified by gel filtration using Superdex 200 Increase 10/300 GL (manufactured by GE Healthcare). A 50-kDa elution fraction was collected, and the fraction was used as A2D109 Fab. Purified recombinant TGF-β1-LAP and purified A2D109 Fab were mixed together at a molar mixing ratio of 1:1. A complex thus produced was purified by gel filtration chromatography (HiLoad 16/600 Superdex 200 pg, manufactured by GE Healthcare) using a column equilibrated with a buffer composed of 20 mM Tris-HCl (pH 8.0), 150 mM NaCl and 10% glycerol.
# Sequence of complex of human TGF-β1 LAP-D and A2D109 antibody Fab fragment (human) (P01137 30-390, one chain of several): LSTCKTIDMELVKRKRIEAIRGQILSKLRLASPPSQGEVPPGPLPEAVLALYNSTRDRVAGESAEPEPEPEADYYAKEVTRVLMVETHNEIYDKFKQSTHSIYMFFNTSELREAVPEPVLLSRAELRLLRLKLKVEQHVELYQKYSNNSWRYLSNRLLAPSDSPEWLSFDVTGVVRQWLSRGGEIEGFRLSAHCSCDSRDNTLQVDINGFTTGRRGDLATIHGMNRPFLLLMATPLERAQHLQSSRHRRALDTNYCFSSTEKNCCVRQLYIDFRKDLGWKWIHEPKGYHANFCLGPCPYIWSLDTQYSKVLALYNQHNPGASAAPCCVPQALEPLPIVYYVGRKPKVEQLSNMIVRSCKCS
# T1 sequence (P01137 30-390): as the sequence (P01137 30-390, one chain of several) above
# Sequence of human TGF-β1-LAP (amino acid residues position-30 to position-390), recombinant, Example 4 (human) (P01137 30-390): as the sequence (P01137 30-390, one chain of several) above
# T2 sequence (P01137 30-390, one chain of several): as above
molecule,measurement,setting,value
"anti-human LAP TGF-β1 antibody (BAM2462, manufactured by R&D Systems)",Kd,[1],0.0167 nM
same,koff,[1],2.34e-05 s⁻¹
same,kon,[1],1.4e+06 M⁻¹ s⁻¹
same,Kd,[2],0.345 nM
same,koff,[2],0.000154 s⁻¹
same,kon,[2],447000 M⁻¹ s⁻¹
"anti-LAP-D antibody (A10) (antibody, mouse IgG1, kappa, V domains shown, Biotin-labelled when used as ELISA detection antibody; immobilised on a CM5 chip in SPR; also called isolated monoclonal antibody of the present embodiment) VH: QVQLQQPGAELVRPGASVKLSCKTSGYSFTRFWMNWVRQRPGQGLEWIGMIHSSDSITRLNQKFKDKATLTLDYSSSTAYMQLSSPTSEDSAVYYCARGYDEYSAMDYWGQGTSVPVSS VL: DIQMTQSPSSLSASLGERVSLTCRASHEISGYLGWLQRQPDGTIKRLIYAASTLDSGVPKRFSGSRSGSDYSLTISSLESEDFADYYCLQYASYPFTFGSGTKLEVKR",Kd,[3],0.214 nM
same,koff,[3],4.17e-05 s⁻¹
same,kon,[3],195000 M⁻¹ s⁻¹
same,koff,[4],0.000201 s⁻¹
same,kon,[4],304000 M⁻¹ s⁻¹
"A2D109 antibody Fab fragment (Fab, V domains shown, Fab made from the mouse A2D109 antibody with a Mouse IgG1 Fab preparation kit; 50-kDa gel filtration fraction; the constant parts of the Fab are not; also called A2D109 Fab; A2D109Fab) VH: EVQLQQSGAELVRPGASVKLSCKASGYTFTSYWMNWVKQRPGQGLEWIGMIDPSDSETHYNQMFKDKATLTVDKSSSTAYMQLSSLTSEDSAVYYCVNWPYALDYWGQGTSVTVSS VL: QIVLTQSPAIMSASPGEKVTMTCSASSSVSYMHWFQQKPGTSPKLWIYSTSNLASGVPARFSGSGSGTSYSLTISRMEAEDAATYYCQQRSSYPFTFGSGTKLEIKR",binding result,[5],binds
